Measurements as given in patent US20150344570A1 (published 2015).
Substitutions are numbered along the chain they refer to. Names and notes keep the numbering of the source.

T1: FcgRIIa H (FcγRIIa type H) extracellular domain with C-terminal His tag (human, UniProt P12318 34-217)
T1 construct: extracellular domain; also called FcγRIIa H; not shown: His tag attached to the C terminus
T1 sequence (looked up): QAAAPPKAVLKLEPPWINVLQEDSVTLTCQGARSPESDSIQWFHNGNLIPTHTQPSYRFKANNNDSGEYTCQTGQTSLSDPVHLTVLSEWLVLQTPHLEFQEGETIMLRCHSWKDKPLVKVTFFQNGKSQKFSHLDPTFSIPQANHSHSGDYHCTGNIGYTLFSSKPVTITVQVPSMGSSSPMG

T2: FcgRIIb (FcγRIIb) extracellular domain with C-terminal His tag (human, UniProt P31994 43-217)
T2 construct: extracellular domain; not shown: His tag attached to the C terminus
T2 sequence (looked up): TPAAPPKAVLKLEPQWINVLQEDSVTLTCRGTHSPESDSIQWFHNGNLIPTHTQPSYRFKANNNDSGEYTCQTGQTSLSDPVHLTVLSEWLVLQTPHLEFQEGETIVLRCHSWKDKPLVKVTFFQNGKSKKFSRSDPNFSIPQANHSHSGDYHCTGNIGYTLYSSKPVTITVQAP

T3: FcgRIIa R (FcγRIIa type R) extracellular domain with C-terminal His tag (human, UniProt P12318 34-217)
T3 construct: extracellular domain; also called FcγRIIa R; not shown: His tag attached to the C terminus
T3 sequence (looked up): T1 sequence (looked up) with H134R

B1: H240-Kn061/H240-Hl071/L73-k0 variant with Y235A in H240-Kn061 (antibody, human IgG1, kappa)
heavy 1: QDQLVQSGAEVKKPGASVKVSCKASGFNIKDTYIQWVRQAPGQGLEWMGRIDPLRKQTKYREKFEGRVTITADTSTNTAYMELSSLRSEDTAVYYCVRSGREFDYWGQGTLVTVSSASTKGPSVFPLAPSSKSTSGGTAALGCLVKDYFPEPVTVSWNSGALTSGVHTFPAVLQSSGLYSLSSVVTVPSSSLGTQTYICNVNHKPSNTKVDKKVEPKSCDKTHTCPPCPAPEYAWGPSVFLFPPKPKDTLMISRTPEVTCVVVDVSDEDPEVKFNWYVDGVEVHNAKTKPREEQYNATYRVVSVLTVLHQDWLNGKEYKCKVSNKALPAPIEKTISKAKGQPREPQVCTLPPSRDELTKNQVSLWCLVKGFYPSDIAVEWESNGQPENNYKTTPPVLDSDGSFFLYSKLTVDKSRWQQGNVFSCSVMHEALHNHYTQKSLSLSP
heavy 2: QDQLVQSGAEVKKPGASVKVSCKASGFNIKDTYIQWVRQAPGQGLEWMGRIDPLRKQTKYREKFEGRVTITADTSTNTAYMELSSLRSEDTAVYYCVRSGREFDYWGQGTLVTVSSASTKGPSVFPLAPSSKSTSGGTAALGCLVKDYFPEPVTVSWNSGALTSGVHTFPAVLQSSGLYSLSSVVTVPSSSLGTQTYICNVNHKPSNTKVDKKVEPKSCDKTHTCPPCPAPELLGGPSVFLFPPKPKDTLMISRTPEVTCVVVDVSHEDPEVKFNWYVDGVEVHNAKTKPREEQYNSTYRVVSVLTVLHQDWLNGKEYKCKVSNDALPMPIEETISKAKGQPREPQVYTLPPSRCELTKNQVSLSCAVKGFYPSDIAVEWESNGQPENNYKTTPPVLDSDGSFFLVSKLTVDKSRWQQGNVFSCSVMHEALHNHYTQKSLSLSP
light: DIQMTQSPSSLSASVGDRVTITCRASQDIHKYIAWYQQKPGQAPRLLIQYTSTLQPGVPSRFSGSGSGTDYTFTISSLQPEDIATYYCLQYEQLRTFGGGTKVEIKRTVAAPSVFIFPPSDEQLKSGTASVVCLLNNFYPREAKVQWKVDNALQSGNSQESVTEQDSKDSTYSLSSTLTLSKADYEKHKVYACEVTHQGLSSPVTKSFNRGEC
notes: anti-epiregulin heterodimerized IgG1; also called H240-Kn061 Y235A
B2: H240-Kn061/H240-Hl071/L73-k0 variant with Y234L in H240-Kn061 (antibody, human IgG1, kappa)
heavy 1: B1 heavy 1 with Y233L, A234Y
heavy 2: B1 heavy 2
light: B1 light
notes: anti-epiregulin heterodimerized IgG1; also called H240-Kn061 Y234L
B3: H240-Kn061/H240-Hl071/L73-k0 variant with Y235P in H240-Kn061 (antibody, human IgG1, kappa)
heavy 1: B1 heavy 1 with A234P
heavy 2: B1 heavy 2
light: B1 light
notes: anti-epiregulin heterodimerized IgG1; also called H240-Kn061 Y235P
B4: H240-Kn061/H240-Hl071/L73-k0 variant with S239M in H240-Kn061 (antibody, human IgG1, kappa)
heavy 1: B1 heavy 1 with A234Y, S238M
heavy 2: B1 heavy 2
light: B1 light
notes: anti-epiregulin heterodimerized IgG1; also called H240-Kn061 S239M
B5: H240-Kn061/H240-Hl071/L73-k0 variant with Y234E in H240-Kn061 (antibody, human IgG1, kappa)
heavy 1: B1 heavy 1 with Y233E, A234Y
heavy 2: B1 heavy 2
light: B1 light
notes: anti-epiregulin heterodimerized IgG1; also called H240-Kn061 Y234E
B6: H240-Kn061/H240-Hl071/L73-k0 variant with Y234I in H240-Kn061 (antibody, human IgG1, kappa)
heavy 1: B1 heavy 1 with Y233I, A234Y
heavy 2: B1 heavy 2
light: B1 light
notes: anti-epiregulin heterodimerized IgG1; also called H240-Kn061 Y234I
B7: H240-Kn061/H240-Hl071/L73-k0 variant with Y235I in H240-Kn061 (antibody, human IgG1, kappa)
heavy 1: B1 heavy 1 with A234I
heavy 2: B1 heavy 2
light: B1 light
notes: anti-epiregulin heterodimerized IgG1; also called H240-Kn061 Y235I
B8: H240-Kn061/H240-Hl071/L73-k0 variant with V240H in H240-Hl071 (antibody, human IgG1, kappa)
heavy 1: B1 heavy 1 with A234Y
heavy 2: B1 heavy 2 with V239H
light: B1 light
notes: anti-epiregulin heterodimerized IgG1; also called H240-Hl071 V240H
B9: H240-Kn061/H240-Hl071/L73-k0 variant with S239V in H240-Kn061 (antibody, human IgG1, kappa)
heavy 1: B1 heavy 1 with A234Y, S238V
heavy 2: B1 heavy 2
light: B1 light
notes: anti-epiregulin heterodimerized IgG1; also called H240-Kn061 S239V
B10: H240-Kn061/H240-Hl071/L73-k0 variant with Y235Q in H240-Kn061 (antibody, human IgG1, kappa)
heavy 1: B1 heavy 1 with A234Q
heavy 2: B1 heavy 2
light: B1 light
notes: anti-epiregulin heterodimerized IgG1; also called H240-Kn061 Y235Q

Each binder was assayed against T4, FcgRIIIa V (FcγRIIIa type V) extracellular domain with C-terminal His tag (human, UniProt P08637 17-208) (assay: SPR (Biacore); KD of H240-Kn061/H240-Hl071/L73-k0 divided by KD of the variant).
T4 construct: extracellular domain; also called FcγRIIIa V; not shown: His tag attached to the C terminus
Experimental: (§1) The antibodies were assessed for the binding to each FcgR. […] The resultant value was defined as relative KD, and used as an assessment indicator.
(§2) Analysis of interaction between objective antibody and the FcγR was carried out using Biacore T100 (GE Healthcare), Biacore T200, Biacore A100, and Biacore 4000. HBS-EP+ (GE Healthcare) was used as the running buffer, and the measurement temperature was set to 25° C. Chips produced by immobilizing the antigen peptide by the amine coupling method to a Series S sensor Chip CM5 (GE Healthcare), chips produced by allowing preliminarily biotinylated antigen peptides to interact with and immobilize onto a Series S Sensor Chip SA (certified) (GE Healthcare), chips produced by immobilizing Protein L (ACTIGEN, BioVision) to Series S Sencor Chip CM5 (GE Healthcare), or chips produced by immobilizing Protein A/G (Thermo Scientific) to Series S Sencor Chip CM5 (GE Healthcare) were used. Antibodies of interest were captured onto these chips, and allowed to interact to each FcγR diluted with running buffer.

T4 sequence (P08637 17-208 F176V limits assumed): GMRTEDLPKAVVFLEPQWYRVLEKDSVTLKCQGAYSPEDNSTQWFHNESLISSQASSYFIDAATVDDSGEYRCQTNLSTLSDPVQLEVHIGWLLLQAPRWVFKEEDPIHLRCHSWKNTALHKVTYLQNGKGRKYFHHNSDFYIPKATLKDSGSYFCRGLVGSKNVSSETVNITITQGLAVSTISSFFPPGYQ

Compared with B1, B2 is lower in “relative KD” value: 1.3 ratio for the first, 1.2 ratio for the second.

Going from B3 to B4, the “relative KD” value rises from 1.5 ratio to 2.8 ratio.

Compared with B5, B6 is lower in “relative KD” value: 1.6 ratio for the first, 1.3 ratio for the second.

Going from B7 to B8, the “relative KD” value falls from 1.6 ratio to 1 ratio.

Compared with B9, B10 is lower in “relative KD” value: 2.9 ratio for the first, 1.3 ratio for the second.

These binders were tested against T1, FcgRIIa H (FcγRIIa type H) … in the same assay as above.
Experimental: as §1, §2

Going from B1 to B2, the “relative KD” value rises from 0.5 ratio to 1.5 ratio.

First: B3
Second: B4
The “relative KD” value of the first is lower: 0.4 ratio for the first, 2 ratio for the second.

First: B5
Second: B6
The “relative KD” value of the first is lower: 0.7 ratio for the first, 2.6 ratio for the second.

First: B7
Second: B8
The “relative KD” value of the first is lower: 0.4 ratio for the first, 0.8 ratio for the second.

Going from B9 to B10, the “relative KD” value falls from 2.4 ratio to 0.4 ratio.

The binders below were run against T2, FcgRIIb (FcγRIIb) extracellular domain … in the same assay as above.
Experimental: as §1, §2

Compared with B1, B2 is higher in “relative KD” value: 0.2 ratio for the first, 3.5 ratio for the second.

Compared with B3, B4 is higher in “relative KD” value: 0.5 ratio for the first, 2.2 ratio for the second.

Going from B5 to B6, the “relative KD” value rises from 0.5 ratio to 7.7 ratio.

Compared with B7, B8 is higher in “relative KD” value: 0.2 ratio for the first, 0.3 ratio for the second.

First: B9
Second: B10
The “relative KD” value of the first is higher: 3.4 ratio for the first, 0.1 ratio for the second.

These binders were tested against T5, FcgRIIIa F (FcγRIIIa type F) extracellular domain with C-terminal His tag (human, UniProt P08637 17-208) in the same assay as above.
T5 construct: extracellular domain; also called FcγRIIIa F; 3aF; not shown: His tag attached to the C terminus
Experimental: as §1, §2

T5 sequence (P08637 17-208): as the sequence (P08637 17-208 F176V limits assumed) above, with V160F counted along it

Compared with B1, B2 is lower in “relative KD” value: 1.2 ratio for the first, 1.1 ratio for the second.

First: B3
Second: B4
The “relative KD” value of the first is lower: 1.1 ratio for the first, 2.2 ratio for the second.

Compared with B5, B6 is lower in “relative KD” value: 1.9 ratio for the first, 1.2 ratio for the second.

B7 and B8 are the same in “relative KD” value: 1.3 ratio for the first, 1.3 ratio for the second.

Going from B9 to B10, the “relative KD” value falls from 2.4 ratio to 1 ratio.

The binders below were run against T3, FcgRIIa R (FcγRIIa type R) … in the same assay as above.
Experimental: as §1, §2

Compared with B1, B2 is higher in “relative KD” value: 0.5 ratio for the first, 2.2 ratio for the second.

Going from B3 to B4, the “relative KD” value rises from 0.6 ratio to 3.2 ratio.

First: B5
Second: B6
The “relative KD” value of the first is lower: 1.4 ratio for the first, 4.1 ratio for the second.

B7 and B8 are the same in “relative KD” value: 0.7 ratio for the first, 0.7 ratio for the second.

Compared with B9, B10 is lower in “relative KD” value: 4.2 ratio for the first, 0.8 ratio for the second.

Target: T4, FcgRIIIa V (FcγRIIIa type V) …
Test: as above
Remark: another data set of the same source
Experimental: as §1, §2

First: B1
Second: B3
The “relative KD” value of the first is lower: 1.3 ratio for the first, 1.5 ratio for the second.

B5 and B7 are the same in “relative KD” value: 1.6 ratio for the first, 1.6 ratio for the second.

In the case of B10, the “relative KD” value is reported as 1.3 ratio.

Target: T2, FcgRIIb (FcγRIIb) extracellular domain …
Test: as above
Remark: another data set of the same source
Experimental: as §1, §2

Going from B1 to B3, the “relative KD” value rises from 0.2 ratio to 0.5 ratio.

First: B5
Second: B7
The “relative KD” value of the first is higher: 0.5 ratio for the first, 0.2 ratio for the second.

B10 was tested, and the “relative KD” value was 0.1 ratio.

Target: T5, FcgRIIIa F (FcγRIIIa type F) …
Test: as above
Remark: another data set of the same source
Experimental: as §1, §2

Compared with B1, B3 is lower in “relative KD” value: 1.2 ratio for the first, 1.1 ratio for the second.

Compared with B5, B7 is lower in “relative KD” value: 1.9 ratio for the first, 1.3 ratio for the second.

In the case of B10, the “relative KD” value is reported as 1 ratio.
